# Experimental data published in the supplement of paper PMC10567573.
# B1: GFOD1 (parent)
# chain: EEAEELAKEMSVPFYTSRIDEVLL
# Variants of: B1
# Experiment: protein stability index of a GFP-peptide fusion (GPS, HEK-293T) (PSI 1-6); higher = more stable
# Conditions: c terminus: a fixed tail appended
# 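Also: lentivirally expressed fusions sorted by FACS into six bins by GFP to DsRed ratio, PSI derived from sequencing read proportions per bin multiplied by bin number.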
row,Variant,protein stability index
1,EIAEELAKEMSVPFYTSRIDEVLL,2.18
2,ERAEELAKEMSVPFYTSRIDEVLL,2.94
3,ESAEELAKEMSVPFYTSRIDEVLL,3.41
4,EMAEELAKEMSVPFYTSRIDEVLL,2.53
5,ECAEELAKEMSVPFYTSRIDEVLL,3.06
6,EFAEELAKEMSVPFYTSRIDEVLL,2.1
7,ENAEELAKEMSVPFYTSRIDEVLL,4
8,EEAEELAKEMSVPPYTSRIDEVLL,4.85
9,EEAEELAKEMSVPDYTSRIDEVLL,4.9
10,EEAEELAKEMSVPWYTSRIDEVLL,3.66
11,EEAEELAKEMSVPQYTSRIDEVLL,5
12,EEAEELAKEMSVPAYTSRIDEVLL,4.46
13,EEAEELAKEMSVPHYTSRIDEVLL,4.2
14,EEAEELAKEMSVPFYTSRIDEVLS,4.41
15,EEAEELAKEMSVPFYTSRIDEVLM,3.73
16,EEAEELAKEMSVPFYTSRIDEVLV,4
17,EEAEELAKEMSVPFYTSRIDEVLC,4.04
18,EEAEELAKEMSVPFYTSRIDEVLP,4.98
19,EEAEELAKEMSVPFYTSRIDEVLI,3.75
20,EEAEELAKEMSVPFYTSRIDEVLE,4.97
21,EEAEELAKEMSVPFYTSRIDEVLD,5.2
22,EEAEELAKEMSVPFYTSRINEVLL,3.29
23,EEAEELAKEMSVPFYTSRILEVLL,2.07
24,EEAEELAKEMSVPFYTSRIMEVLL,2.33

row,Variant,protein stability index
1,EEAEELAKEMSVPFYTSRIEEVLL,3.91
2,EEAEELAKEMSVPFYTSRIFEVLL,2
3,EEAEELAKEMSVPFYTSRIKEVLL,2.78
4,EEAEELAKEMSVPFYTSRICEVLL,2.46
5,EEAEELAKEMSVPFYTVRIDEVLL,3.12
6,EEAEELAKEMSVPFYTYRIDEVLL,2.94
7,EEAEELAKEMSVPFYTHRIDEVLL,3.71
8,EEAEELAKEMSVPFYTERIDEVLL,4.27
9,EEAEELAKEMSVPFYTTRIDEVLL,3.29
10,EEAEELAKEMSVPFYTIRIDEVLL,2.38
11,EEAEELAKEMSVPFYTARIDEVLL,3.09
12,EEAEELAKEMSVPFYTKRIDEVLL,3.87
13,EEAEELAKEMSVPFYTDRIDEVLL,4.98
14,EEAEELAKEMSVPFYTQRIDEVLL,3.27
15,EEAEELAKEMSVPFYTCRIDEVLL,2.52
16,EEAEELAKEMSVPFYASRIDEVLL,4
17,EEAEELAKEMSVPFYDSRIDEVLL,4.33
18,EEAEELAKEMSVPFYRSRIDEVLL,3.27
19,EEAEELAKEMSVPFYHSRIDEVLL,3.93
20,EEAEELAKEMSVPFYQSRIDEVLL,4.17
21,EEAEELAKEMSVPFYTSRIDQVLL,3.39
22,EEAEELAKEMSVPFYTSRIDSVLL,3.83
23,EEAEELAKEMSVPFYTSRIDRVLL,2.8
24,EEAEELAKEMSVPFYTSRIDPVLL,3.92

row,Variant,protein stability index
1,EEAEELAKEMSVPFYTSRIDWVLL,1.83
2,EEAEELAKEMSVPFYTSRIDAVLL,2.66
3,EEAEELAKEMSVPFYTSRIDNVLL,3.69
4,EEAEELAKEMSVPFYTSRIDFVLL,1.42
5,EEAEELAKEMSVPFYTSRIDCVLL,1.97
6,EEAEELAKEMSVPFYTSRIDTVLL,3.65
7,EEAEELAKEMQVPFYTSRIDEVLL,4.04
8,EEAEELAKEMRVPFYTSRIDEVLL,3.02
9,EEAEELAKEMWVPFYTSRIDEVLL,2.76
10,EEAEELAKEMCVPFYTSRIDEVLL,3.36
11,EEAEELAKEMNVPFYTSRIDEVLL,2.23
12,EEAEELAKEKSVPFYTSRIDEVLL,4.03
13,EEAEELAKETSVPFYTSRIDEVLL,4.03
14,EEAEELAKEPSVPFYTSRIDEVLL,4.5
15,EEAEELAKEFSVPFYTSRIDEVLL,3.62
16,EEAEELKKEMSVPFYTSRIDEVLL,3.32
17,EEAEELVKEMSVPFYTSRIDEVLL,4.01
18,EEAEELRKEMSVPFYTSRIDEVLL,3.62
19,EEAEELFKEMSVPFYTSRIDEVLL,2.99
20,EEAEELQKEMSVPFYTSRIDEVLL,4.06
21,EEAEELYKEMSVPFYTSRIDEVLL,3.07
22,EEAEELPKEMSVPFYTSRIDEVLL,4.5
23,EEAEELEKEMSVPFYTSRIDEVLL,3.87
24,EEAEELAKSMSVPFYTSRIDEVLL,2.92

row,Variant,protein stability index
1,EEAEELAKNMSVPFYTSRIDEVLL,3.71
2,EEAEELAKWMSVPFYTSRIDEVLL,2.62
3,EEAEELAKCMSVPFYTSRIDEVLL,2.55
4,EEAEELAKPMSVPFYTSRIDEVLL,3.01
5,EEAEELAKFMSVPFYTSRIDEVLL,3.12
6,EEAEELAKKMSVPFYTSRIDEVLL,2.66
7,EEAERLAKEMSVPFYTSRIDEVLL,3.56
8,EEAETLAKEMSVPFYTSRIDEVLL,3.48
9,EEAELLAKEMSVPFYTSRIDEVLL,4.05
10,EEAEYLAKEMSVPFYTSRIDEVLL,3.98
11,EEAENLAKEMSVPFYTSRIDEVLL,3.23
12,EEAECLAKEMSVPFYTSRIDEVLL,3.79
13,EEAEALAKEMSVPFYTSRIDEVLL,3.45
14,EEAEGLAKEMSVPFYTSRIDEVLL,4.04
15,EEAEWLAKEMSVPFYTSRIDEVLL,2.35
16,EEAESLAKEMSVPFYTSRIDEVLL,3.13
17,EEAEKLAKEMSVPFYTSRIDEVLL,4.14
18,EEAEELAKEMSVRFYTSRIDEVLL,4.11
19,EEAEELAKEMSVGFYTSRIDEVLL,4.02
20,EEAEELAKEMSVDFYTSRIDEVLL,3.96
21,EEAEELAKEMSVIFYTSRIDEVLL,2.03
22,EEAEELAKEMSVKFYTSRIDEVLL,3.19
